According to US20030135880A1, “Compositions and methods for halogenation reactions” (priority 2002, published 2003):
Read-outs that look alike come from different tables or passages of the source.

Experiments:
PrnA [1] = target: T1, PrnA (Pseudomonas fluorescens, UniProt P95480); format: biochemical; design: made in house; host or cells: Pseudomonas fluorescens BL915deltaORF1-4 with plasmid pPEH14 (prnA); conditions: 20 microliter PrnA, 20 microliter electron transferase, 20.5 hours, room temperature, triplicate
Protocol: Protein concentration or the preparation is 0.36 mg/ml.
Either a NADH dependent mixture or a NADPH mixture is used as indicated below. An NADH-dependent assay mixture is prepared by adding 12 mg of NADH to 4.5 ml of above described assay mixture. A NADPH-dependent assay mixture is prepared by adding 3 mg NADPH to 1 ml of the above described assay mixture.
The reactions 1-7, described below, are set up in polypropylene tubes in triplicate. After mixing PrnA, the indicated assay mixture and electron transferase, samples are vortexed, then mixed by inversion at room temperature. […] The HPLC analysis is by Method Set PrnA1 (described below), the injection volume is 50 microliter, and data are collected for the first 6 minutes.
Standards are prepared by mixing 5 or 10 microliter 7-Cl-Trp (1 mM) with sufficient 50 mM HEPES, pH 7.5 to bring the final volume to 200 microliter. D-Trp is eluted at ˜2 min and 7-Cl-trp is eluted at 4.3 min, as indicated by the elution of the authentic D-Trp and 7-Cl-Trp. The quantity of 7-Cl-trp is determined by comparison to a standard curve. Reported activities are the net increase in 7-Cl-Trp after addition of the electron transferase.
A Waters Alliance HPLC system with photodiode array detector is used. The Waters Alliance HPLC is equipped with a 4.6×50 mm column packed with C18-Silica, particle size 3 micrometer. A gradient elution method designated here as PrnA1 is used. Flow rates are 1 ml/min throughout and absorbance data are collected from 210 to 400 nm with a resolution of 1.2 nm and a sampling rate of 1/s. The system as pre-equilibrated with an 85:15 mixture of water:methanol. After injection of the sample the column is developed with a 6 min gradient from the starting conditions to a 40:60 water:methanol mixture. Then from 6.0 to 7.0 min the concentration of methanol is increased to 100% in a linear gradient. The column is washed for 1 min with 100% methanol, then re-equilibrated. D-Trp eluted at ˜2 min and 7-Cl-trp eluted at 4.3 min, as indicated by the elution of authentic D-Trp and 7-Cl-Trp.

PrnA [2] = target: T1, PrnA; experiment: Activation of PrnA by electron transferases, 2 h assay (Example 2); format: biochemical; design: made in house; host or cells: Pseudomonas fluorescens BL915deltaORF1-4 with plasmid pPEH14 (prnA); conditions: 20 microliter PrnA, 50 microliter NADH, 50 microliter electron transferase, room temperature
Protocol: The following components are used in examples 1-4 below: PrnA (described for Example 1 above) at 0.36 mg/ml, Assay Mixture containing HEPES (100 mM), glucose-6-phosphate, disodium salt (50 mM), D-Trp (5 mM), NaCl (5 mM). Aspergillus niger catalase (39 U/ml), bovine erythrocyte superoxide dismutase (15 U/ml), Leuconostoc mesenteroides glucose-6-phosphate dehydrogenase (10 U/ml). NADH-(3 mg/ml) NADPH (3 mg/ml).
Each assay contains the assay mixture, either NADH (for samples containing Fre and the NAD(P)H:FMN reductase) or NADPH (for samples containing FNR or FNR and Fd), PrnA and the indicated electron transferase. Negative control samples are incubated in parallel; these substituted buffer for PrnA. Quantification standards are prepared by diluting 0,1, 2 or 5 microliter of 7-Cl-Trp standard (1 mM) in 100 microliter Assay Mixture, 50 microliter NADH, 20 microliter PrnA and 50 microliter buffer; the tubes were heated to 100 C. prior to addition of PrnA, then heated an additional 2 min. Further processing is in parallel with the enzymatic reactions. All samples are mixed for 2 h at room temperature. Reactions are stopped and samples processed as described above in Example 1, including using the HPLC Analytical method PrnA1 as described in Example 1.

PrnC = target: T2, PrnC (Pseudomonas fluorescens, UniProt P95482); experiment: In vitro halogenation with PrnC: chlorination of MDA to APRN (Example 3); format: biochemical, P. fluorescens; conditions: Extract #2 (PrnC depleted of P2) plus 20 microliter electron transferase, NADH, overnight
T2 construct: made in house; host or cells: P. fluorescens (pPEH/prnC/134Δprn), plasmid pPEH-PrnC with tac promoter
T2 sequence (P95482 whole entry, looked up): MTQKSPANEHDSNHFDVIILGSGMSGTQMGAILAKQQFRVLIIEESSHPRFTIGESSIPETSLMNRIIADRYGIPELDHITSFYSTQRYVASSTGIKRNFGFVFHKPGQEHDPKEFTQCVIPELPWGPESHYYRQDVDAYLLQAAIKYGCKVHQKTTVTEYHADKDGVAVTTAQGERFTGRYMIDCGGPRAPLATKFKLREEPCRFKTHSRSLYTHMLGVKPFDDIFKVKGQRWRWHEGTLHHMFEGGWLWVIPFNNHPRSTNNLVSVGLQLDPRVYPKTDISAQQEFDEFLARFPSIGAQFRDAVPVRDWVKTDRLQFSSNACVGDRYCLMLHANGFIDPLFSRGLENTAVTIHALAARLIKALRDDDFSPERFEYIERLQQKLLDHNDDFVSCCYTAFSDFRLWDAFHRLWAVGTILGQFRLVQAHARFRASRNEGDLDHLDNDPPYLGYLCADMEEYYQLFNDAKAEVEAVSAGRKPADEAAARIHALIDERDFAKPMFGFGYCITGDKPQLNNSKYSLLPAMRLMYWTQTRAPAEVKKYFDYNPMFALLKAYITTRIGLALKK
Protocol: Fre, ferrodoxin NADP reductase, ferrodoxin and NADPH FMN-reductase are tested for the ability to activate P. fluorescens PrnC that was depleted of endogenous electron transferase (P2) as described below. PrnC catalyzes chlorination of monodechloroaminopyrrolnitrin (MDA) to yield aminopyrrolnitrin (APRN).
The following materials are prepared for use in assays described below. Buffer 100 mM Tris/Cl, 1 mM EDTA. pH 7.5. Monodechloroaminopyrrolnitrin (MDA) 74.2 mM is prepared by culture of Pseudomonas fluorescens expressing PrnA and PrnB as described in (Kirner et al,1998) which is herein incorporated by reference in its entirety. The assay mix comprises FAD (5 μM) and MDA (742 μM) in buffer. NADH is dissolved in buffer at a concentration of 6 mg/ml. or NADPH is dissolved in buffer at a concentration of 6 mg/ml. Extract #1 is a crude extract in buffer containing PrnC and the endogenous electron transferase P2 described above in example 1. […]
The assays described below are run as follows; Extract #2 is mixed with the indicated electron transferase, assay mix and either NADH or NADPH as indicated. The native activity of PrnC prior to removal of the P2 activity is determined by a parallel sample in which extract #1 is mixed with assay mix and NADH. […] Samples are analyzed by PrnC_Iso method described below. The 220 nm absorbance chromatogram is analyzed and integrated. PrnC activity is expressed as 100 times the ratio of the APRN peak area to the sum of the peak areas of APRN and MDA. Assuming equal extinction coefficients at 220 nm the calculated ratio is equivalent to the net % conversion of MDA to APRN by halogenation.
HPLC Analytical method PrnC_Iso The HPLC instrument used is a Waters Alliance HPLC system with photodiode array detector and is equipped with a 4.6×50 mm column packed with C18-Silica, particle size 3 micrometer. […] Absorbance data are collected from 210 to 400 nm with a resolution of 2.4 nm and a sampling rate of 5/s. […]

T1 sequence (P95480 whole entry): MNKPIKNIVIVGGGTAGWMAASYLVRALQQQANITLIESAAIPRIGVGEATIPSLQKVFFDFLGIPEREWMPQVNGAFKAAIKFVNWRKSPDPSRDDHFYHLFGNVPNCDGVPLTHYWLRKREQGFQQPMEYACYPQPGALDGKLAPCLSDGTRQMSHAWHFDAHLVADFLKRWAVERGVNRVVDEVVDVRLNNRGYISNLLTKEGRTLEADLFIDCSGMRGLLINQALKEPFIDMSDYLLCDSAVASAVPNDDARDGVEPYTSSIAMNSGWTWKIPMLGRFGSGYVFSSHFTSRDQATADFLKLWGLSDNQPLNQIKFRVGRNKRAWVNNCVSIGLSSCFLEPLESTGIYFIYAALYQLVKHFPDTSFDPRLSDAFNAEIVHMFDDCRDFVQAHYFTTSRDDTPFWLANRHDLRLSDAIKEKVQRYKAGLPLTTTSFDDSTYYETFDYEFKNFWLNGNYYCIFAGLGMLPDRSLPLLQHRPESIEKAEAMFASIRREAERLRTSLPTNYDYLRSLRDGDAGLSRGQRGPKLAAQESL

B1: cytochrome b5 reductase: Recombinant soluble domain of rat hepatic cytochrome b5 reductase (protein, listed as Rattus norvegicus)
chain: MGAQLSTLSRVVLSPVWFVYSLFMKLFQRSSPAITLENPDIKYPLRLIDKEIISHDTRRFRFALPSPQHILGLPIGQHIYLSTRIDGNLVIRPYTPVSSDDDKGLVDLVVKVYFKDTHPKFPAGGKMSQYLENMNIGDTIEFRGPNGLLVYQGKGKFAIRADKKSNPVVRTVKSVGMIAGGTGITPMLQVIRAVLKDPNDHTVCYLLFANQSEKDILLRPELEELRNEHSSRFKLWYTVDKAPDAWDYSQGFVNEEMIRDHLPPPGEETLILMCGPPPMIQFACLPNLERVGHPKERCFTF
With B1 the “net product formation 7-Cl-Trp” value (PrnA [1]; NADH mixture) was 0.31 ± 0.11 nmol.

B2: FNR: Spinach ferredoxin NADP reductase (protein, UniProt P00455 56-369, looked up)
Ferredoxin--NADP reductase, …: QIASDVEAPPPAPAKVEKHSKKMEEGITVNKFKPKTPYVGRCLLNTKITGDDAPGETWHMVFSHEGEIPYREGQSVGVIPDGEDKNGKPHKLRLYSIASSALGDFGDAKSVSLCVKRLIYTNDAGETIKGVCSNFLCDLKPGAEVKLTGPVGKEMLMPKDPNATIIMLGTGTGIAPFRSFLWKMFFEKHDDYKFNGLAWLFLGVPTSSSLLYKEEFEKMKEKAPDNFRLDFAVSREQTNEKGEKMYIQTRMAQYAVELWEMLKKDNTYFYMCGLKGMEKGIDDIMVSLAAAEGIDWIEYKRQLKKAEQWNVEVY
For B2, the “Net 7-Cl-Trp produced” value (PrnA [2]) was 4.22 nmol and the “PrnC activity, conversion of MDA to APRN” value (PrnC) was 1.8%.

B3: Fre: E. coli flavin reductase (SEQ ID NO: 19), purified electron transferase (protein, listed as Escherichia coli)
chain: MTTLSCKVTSVEAITDTVYRVRIVPDAAFSFRAGQYLMVVMDERDKRPFSMASTPDEKGFIELHIGASEINLYAKAVMDRILKDHQIVVDIPHGEAWLRDDEERPMILIAGGTGFSYARSILLTALARNPNRDITIYWGGREEQHLYDLCELEALSLKHPGLQVVPVVEQPEAGWRGRTGTVLTAVLQDHGTLAEHDIYIAGRFEMAKIARDLFCSERNAREDRLFGDAFAFI
B3 was tested, and the “Net 7-Cl-Trp produced” value (PrnA [2]) was 8.44 nmol, the “net product formation 7-Cl-Trp” value (PrnA [1]; NADH mixture) was 21.46 ± 1.02 nmol and the “PrnC activity, conversion of MDA to APRN” value (PrnC) was 51.8%.

B4: NAD(P)H:FMN reductase: Photobacterium fischeri NAD(P)H:FMN reductase purchased from Roche (protein, listed as Vibrio fischeri)
chain: MPINCKVKSIEPLACNTFRILLHPEQPVAFKAGQYLTVVMGEKDKRPFSIASSPCRHEGEIELHIGAAEHNAYAGEVVESMKSALETGGDILIDAPHGEAWIREDSDRSMLLIAGGTGFSYVRSILDHCISQQIQKPIYLYWGGRDECQLYAKAELESIAQAHSHITFVPVVEKSEGWTGKTGNVLEAVKADFNSLADMDIYIAGRFEMAGAAREQFTTEKQAKKEQLFGDAFAFI
B4 was tested, and the “Net 7-Cl-Trp produced” value (PrnA [2]) was 0.11 nmol and the “PrnC activity, conversion of MDA to APRN” value (PrnC) was 4.0%.

B5: NADPH-cyt-P450 reductase: Rabbit liver NADPH-cyt-P450 reductase purchased from Sigma Chemical Co. (protein, listed as Oryctolagus cuniculus)
chain: LINMADSHGDTGATMPEAAAQEASVFSMTDVVLFSLIVGLITYWFLFRKKKEEVPEFTKIQAPTSSSVKESSFVEKMKKTGRNIVVFYGSQTGTAEEFANRLSKDAHRYGMRGMAADPEEYDLADLSSLPEINNALAVFCMATYGEGDPTDNAQDFYDWLQETDVDLSGVKYAVFGLGNKTYEHFNAMGKYVDQRLEQLGAQRIFELGMGDDDANLEEDFITWREQFWPAVCEHFGVEATGEESSIRQYELVLHTDIDVAKVYQGEMGRLKSYENQKPPFDAKNPFLATVTTNRKLNQGTERHLMHLELDISDSKIRYESGDHVAVYPANDSALVNQLGEILGADLDVVMSLNNLDEESNKKHPFPCPTSYRTALTYYLDITNPPRTNVLYELAQYAADPAEQEQLRKMASSSGEGKELYLSWVVEARRHILAILQDYPSLRPPIDHLCELLPRLQARYYSIASSSKVHPNSVHICAVAVEYETKAGRLNKGVATSWLRAKEPAGENGGRALVPMFVRKSQFRLPFKATTPVIMVGPGTGVAPFIGFIQERAWLRQQGKEVGETLLYYGCRRAAEDYLYREELAGFQKDGTLSQLNVAFSREQAQKVYVQHLLRRDKEHLWRLIHEGGAHIYVCGDARNMARDVQNTFYDIVAELGAMEHAQAVDYVKKLMTKGRYSLDVWS
With B5 the “net product formation 7-Cl-Trp” value (PrnA [1]; NADPH mixture) was 3.35 ± 0.23 nmol.
